Legend:
[1] = target: Gab1 of insulin-stimulated 3T3-L1 fibroblasts (Mus musculus (Mouse)) (UniProt Q9QYY0); assay: PI-3-kinase activity assay on anti-Gab1 immunoprecipitates from 3T3-L1 fibroblasts
[2] = target: Gab1 of insulin-stimulated 3T3-L1 fibroblasts (Mus musculus (Mouse)) (UniProt Q9QYY0); assay: PI-3-kinase activity assay on immunoprecipitates from insulin stimulated 3T3-L1 fibroblasts
[3] = target: endogenous Gab1 of insulin stimulated A431 cells (Homo sapiens (Human)); assay: PI-3-kinase activity assay on anti-Gab1 immunoprecipitates from A431 cells
[4] = target: endogenous Gab1 of EGF stimulated A431 cells (Homo sapiens (Human)); assay: as above
[5] = target: endogenous Gab1 of EGF stimulated A431 cells (Homo sapiens (Human)); assay: PI-3-kinase activity assay on immunoprecipitates from EGF stimulated A431 cells

Row | fold increase of PI-3-kinase activity in Gab1 immunoprecipitates [1] [fold] | Gab1 associated PI-3-kinase activity as percent of that associated with anti-phosphotyrosine [2] [%] | fold increase of PI-3-kinase activity in Gab1 immunoprecipitates [3] [fold] | fold increase of PI-3-kinase activity in anti-Gab1 immunoprecipitates against unstimulated cells [4] [fold] | anti-Gab1 associated PI-3-kinase activity as percent of that in anti-phosphotyrosine immunoprecipitates [5] [%] | Substance
1 | 2.4 | 71 | – | – | – | PI-3-kinase of 3T3-L1 fibroblasts (enzyme)
2 | – | – | 1.7 | 2.3 | 42 | PI-3-kinase of A431 cells (enzyme)

— patent US6133428
